From the nanobody polyreactivity screen of Harvey et al. (2022) come the findings set out here.

The nature of the data set: yeast display, Sf9 membrane polyspecificity reagent, FACS + sequencing; frameworks hold sequencing errors. In a few lines:
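Sorting gates, low and high (top ~1%), were placed on anti-HA fluorescence to track expression and on streptavidin fluorescence to track reagent binding. A clone's polyreactivity label is taken from the gate it came out of. The reagent was 10% biotinylated, detergent-solubilized Sf9 membrane, applied for 1 hour at 4 °C to galactose-induced yeast display cells.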
“QVQLVESGGGLVQAGGSLRLSCAASGSTSPAYAMGWYRQAPGKERELVAVITGSGASTYYADSVKGRFTISRDNAKNTVYLQMNSLKPEDTAVYYCAADVGFGVVFYDYWGQGTQVTVSS”: the “polyreactivity (PSR sort gate)” value is listed as “low polyreactivity”.

Turning to “QVQLVESGGGLVQAGGSLRLSCAASGSIFGAYAMGWYRQAPGKERELVAAISRSGSTTYYADSVKGRFTISRDNAKNTVYLQMNSLKPEDTAVYYCAARWTRFLSSSDYYYWGQGTQVTVSS”, the “polyreactivity (PSR sort gate)” value is reported as “high polyreactivity”. In the case of “QVQLVESGGGLVQAGGSLRLSCAASGITFGDNARGWYRQAPGKERELVAAISSGGSTDYADSVKGRFTISRDNAKNTVYLQMNSLKPEDTAVYYCAVDWVSVPEYDYWGQGTQVTVSS”, the “polyreactivity (PSR sort gate)” value is on record as “low polyreactivity”.

As for “QVQLVESGGGLVQAGGSLRLSCAASGRILQPNAMGWYRQAPGKERELVAGISRSGGGTYYADSVKWRFTISRDNAKNTVYLQMNTLKPEDTAVYYCAAYRYGYGYGYWGQGTQLTVSS”, the “polyreactivity (PSR sort gate)” value is “high polyreactivity”.

“QVQLVESGGGLVQARGSLLLSSAASGLIFQTYTMGWYRQAPGKERELVAAITSSGGRTYYADSVKGRFTISRDNAKNSVFLQKNSLKPEDTAVYYCAARRPPSAGMGYWGQGTQVTVSS”: the “polyreactivity (PSR sort gate)” value is reported as “high polyreactivity”.

Consider “QVQLVESGGGLVQAGGSLRLSCAASGITFYPNGMGWYRQAPGKEREFVAAISSSGGSTYYADSVKGRFTISRDNAKNSVYLQMNSLKPEDTAVYYCAAQYYAMSYYGYGYWGQGTQVTVSS”, for which the “polyreactivity (PSR sort gate)” value is listed as “low polyreactivity”.

On to “QVQLVESGGGLVQAGGSLRLSCAASGSIFAHYAMGWYRQAPGKARELVAAISRGGGSTYYSDSVKGRFTISRDNAKNTVYLQMNSLKPEDTAVYYCAVVRSYRGINDYWGQGTQVTVTS”, for which the “polyreactivity (PSR sort gate)” value is “low polyreactivity”.

Consider “QVQLVESGGGLVQAGGSLRLSCAASGRIFGYYVMGWYRPAPGKERELVAAIRSSADSTYYADSVKGRFTISRDNAKNTVYLQMNSLKPEDTAVYDCAAQSPAYYTKSYWGQGTQVTVSS”, for which the “polyreactivity (PSR sort gate)” value is “low polyreactivity”.

As to “QVQLVESGGGLVQAGGSLRLSCAASGNTFAFNAMVWYRQAPGKEREFVAAISYSGVSTYYADSEKGRFTISRDNAKNTVYLQMNSLKPEDTAVYYCAARYGWYKYWYDYWGQGTQGTVSS”, the “polyreactivity (PSR sort gate)” value is on record as “high polyreactivity”. For “QVQLVESGGGLVQAGGSLRLSCAASGLIFPRYDIGWYRQAPGKESEFVAAITSGGGTYYADSVKGRFTLSRDNAKNTVYLQMNSVKPEDTAVYYCARDHYRHSRYFYRYDYWGQGTQVTVSS”, the “polyreactivity (PSR sort gate)” value is listed as “low polyreactivity”. As for “QVQLVESGGGLVQAGGSLRLSCAASGRTFGIYAMGWYRQAPGKERELVADITIGGSTYYADSVKGRFTISRDNAKNTVYLQMNSLKPEDTAVYYCNADVVVQYYFTYYRVFTYDYWGQGTQVTVSS”, the “polyreactivity (PSR sort gate)” value is on record as “low polyreactivity”.

Turning to “QVQLVESGGGIVQAGGSLRLSCAASGSTSSSDDMGWYRQAPGQERELVADITSGGRTYYADSVKGRFTISRDNAKNTVYLQMNSLKPEATAVYYCAADTIEHYSLVTPTQGKFDSWGQGTQVTVSS”, the “polyreactivity (PSR sort gate)” value was “low polyreactivity”.

With “QVQLVESGGGLVQAGGSLRLSCAASGRTFPYYAMGWYRQAPGKERELVAAISRRGASTYYADSVKGRFTISRDNAKNTVYLQMNSLKPEDTAVYYCNAVYRGYYSGELDYWGQGTQVTVSS”, the “polyreactivity (PSR sort gate)” value is “high polyreactivity”. As to “QVQLVESGGGLVQAGGSLRLSCAASGGTFTHYGMGWYRQAPGKERELVAAITWTASSTYYADSVKGRFTISRDNAKNTVYLQMNSLKPEDTAVYYCATSYYYWGHTYDYWGQGTQVTVSS”, the “polyreactivity (PSR sort gate)” value is “low polyreactivity”. In the case of “QDQLVESGGGLVQAGGSLCLSCAASGITFRFYAMGWNRQAPGKERELVAAISWSGGRTYYADSVKGRFTISRDNAKNTVYLQMNSLKPEDTAVYYCAAEASSVPGYDYWGEGTQVTVSS”, the “polyreactivity (PSR sort gate)” value was “low polyreactivity”. For “QVQLVESGGGLVQAGGSLRLSCAASGSTFKAYAMGWYRQAPGKERELVAAITNSDGDTYYADSVKGRFTISRDNAKNTVYLQMNSLKPEDTAVYYCIADTGKWGGNGWYEFDYWGQGTQVTVSS” the value was “low polyreactivity”; for “QVQLVESGGGLVQAGGSLRLSCAASGRIFWPYTMGGYRQAPGKETELVAVITYSGGSTYYADSVKGRFTISRDNAKNTVYLQMNSLIPEDTEVYYCNAGIRFYLHAHGYYWGQGTQVTVSS”, “high polyreactivity”. On to “QVQLVESGGGLVQAGGSLRLSCAASGSTFFQYAMGWYRQAPGKERELVAAITSGGSTNYADSVKGRFTISRDNAKNTVYLQMNSLKPEDTAVYYCAAESKSGAFDYWGQGTQVTVSS”, for which the “polyreactivity (PSR sort gate)” value is listed as “low polyreactivity”. Consider “QVQLVESGGGLVQAGGSLRLSCAASGYTFSGYAMGWYRQAPGKERELVAAISGSSTRTYYADSVKGRFTITRDYAKNTVYFQMNSLKPEDTAVYYCAARFRHGGPYKYGYWGHGTQVTVSS”, for which the “polyreactivity (PSR sort gate)” value is given as “high polyreactivity”.

Regarding “QVQLVESGGCLVQAGASLRLSCAASGSISKSYAMGWYRQAPGKEREFVAAISWRGGSTYADSVKGRFTISRDNAKNTVYLQMNSLKPEDTAVYYCAATNYGTFWGGQSERYDYWGQGSQVTVSS”, the “polyreactivity (PSR sort gate)” value was “low polyreactivity”. As to “QVQLVESGGGLVQAGGSLPLSCAASGRTFDVYPMGWYRQAPGKERELVAAINGGGSTYYADSVKGRFTISRDNAKNTVYLQINSLKPEDTALYYCAAKFRAGRSSYYWGQGTQVTVSS”, the “polyreactivity (PSR sort gate)” value is “high polyreactivity”. Take “QVQLVESGGGLVQAGGSLRLSCAASGRIFYLYTMGWYRQAPGKEREFSRYYADSVKGRFTISRDNAKNTVYLQMNCLKPEDTAVYSCAAADHPPVWYGYWGQGTHVTVSS”: the “polyreactivity (PSR sort gate)” value was “low polyreactivity”. As to “QVQLVESGGGLVQAGGRLRLSCAASGFIFSLYAMGWYRQAPGKERELVAGISESGGSTYYADSVKGRFTISRDNAKNTVYLQMNSLKPEDTAVYYCNADDTVYFIKAGDYWGQGTQVTVSS”, the “polyreactivity (PSR sort gate)” value is reported as “high polyreactivity”. “QVQLVESGGGLVQAGGSLRLSCAASGFIFSRNAMGWYRQAPGKERELVATISKRGGSTYYADSVKGRFTISRDNAKNTVYLQMNSLKPEDTAVYYCAATGGILSTYDYWGQGTQVTVSS”: the “polyreactivity (PSR sort gate)” value was “high polyreactivity”. In the case of “QVQLVESGGGLVKAGGSLRLSCAASGSTFPLYAMGWYRQAPGKEREFVAAIRWIGGSTYYADSVKGRFTISRDNAKNTVYLQMNSLKPEDTAVYFCAADYVVSAFDYWGQGTQVTVSS”, the “polyreactivity (PSR sort gate)” value is listed as “low polyreactivity”. Take “QLQLVESGGGLVQAGGSLRLSCAASGYTFTSYTKGWYRQAPGKEWELVAAITWTGGRTYYADSVKGRFTISRDNAKNTVYLQMNSLKPEDTAVYFCAGSWRKVDYWGQGTQVTVSS”: the “polyreactivity (PSR sort gate)” value was “high polyreactivity”. For “QVQLVESGGGLVQAGGSLRLSCAASGGIFHPNDMGWYRQAPGKESELVAVIDSGDITNYADSVKGRFTISRDNAKNTVYLQMNSLKPEDTAVYYCAADSYSYFTDDHGYWGQGTQVTVSS” the value was “high polyreactivity”; for “QVQLVESGGGLVQAGGSLRLSCAASGFTFYGYAMGWYRPAPGKERELVAAISWSGGSTFYADSVKGRFTISRDNAKNTVYLQMNSQKAEDTAVDYCNAKVYPWGYYTSWRTVSPYDYWGQGTQVSVSS”, “high polyreactivity”; for “QVQLVESGGGLVQAGGSLRLSCAASGSNFKNNAMGWYRQAPGKEREFVASISKRGGSTYYADSVKGRFTISRDNAKNTVYLQMNSLKPEDTEVYYCAKTYWSYGWSHGDYGEFDYWGQGTQVTVSS”, “high polyreactivity”.

“QVQLVESGGGLVQAGGSLRLRCAASGSNFYQNAMGGYRQAPGKETALLATIDVNTVSTSYADSVKGRFTISRDNAKNTVYLQMHSLKPEDTAVYYCAAGPDVGVLGDRDPWKNVKYDYWGQGTQVTASS”: the “polyreactivity (PSR sort gate)” value was “low polyreactivity”. Consider “QVHLVESGGGLVQAGGSLRLSCAASGRTFPYNAMGWYRQAPGKERELVAAISWRGGSTYYADSVKGRFTISRDNAKNTVYLQMNSLKPEDTAVYYCNALYPVSYDHRGDYWGQGTQVTVSS”, for which the “polyreactivity (PSR sort gate)” value is reported as “high polyreactivity”.

For “QVQLVESGGGLVQAGGSLRLSCAASGSTFSYYAMGWYRQAPGKERELVAAISWSGGSKYYADSVKGRFTISRDNAKNTVYLQMNSLKPEDTAVYYCAVYYSYWFDYWGQGTQVTVSS”, the “polyreactivity (PSR sort gate)” value was “high polyreactivity”. “QVQLVESGGGLVQAGVSLRLSCAASGSTFYYYAMGWYRQAPGKERELVATISSGSSTNYADSVKGRFTISRDNAKNTVYLQMNSLKPEDTAVYYCAADRWYITLSIDATISYDYWGQGTQVTVSS”: the “polyreactivity (PSR sort gate)” value is “low polyreactivity”. The value for “QVQLVESGGGLVQAGGSLRLSCAASGRIFGANAMGWSRQAPGKERELVATITYVGTSTYYADSVKGRFTISRDNAKNTVYLQMNSLKPEDTAVYYCAADGYSVFAAILGEYFDYDYWGQGSQVTVSS” was “low polyreactivity”; that for “QVQLVESGGGLVQAGGSLRLSCAASGFTFQTYAMGWYRQAPGKERELVATINSSGGGTYYADSVKGRFTNSRDNAKNTVYLQMNSLKPEDTAVYYCAADAVWFVGQAFDISDSTTYGYWGQGTQVTVSS” was “low polyreactivity”; that for “QVQLVESGGGLVQAGGSLRLSCAASGSIFSYYAMGWYRQAPGKERELVAAINGGDSTNYADSVKGRFTISRDNAKNTVYLQMNSLKPEDTAVYYCAADNYDAALLFEYYYWGQGTQVTVSS” was “low polyreactivity”. For “QVQLVESGGGLVQAGGSLRLSCAASGRIFRYYTMGWYTPAPGNERELVAAISSSGGRTYYADSVKGRFTISRDNAKNTVYLQMNSLKPEDTAVYYCNAYRRFSAFDYWGQGTQVTVTS” the value was “high polyreactivity”; for “QVQLVESGGGLVQAGGSLRLSCAASGRIFWWYAMGWYRQAPGKERELVAVIDDSGGITYYADSVKGRFTISRDNAKNTVYLQRNSLKPEDTAVYYCANYYWGQGTQVTVSS”, “low polyreactivity”.

For “QVQLVESGGGLVQAGGSLRLSCAASGSTFYIYAMGWYRQAPGKERELVARITRGGTTYADSVKGRFTISRDNAKNTVYLQMNSLKLEDTAVYYCNAASKTTRYYQAFYSGGGYWGQGTQVTVSS”, the “polyreactivity (PSR sort gate)” value is on record as “high polyreactivity”. “QVQLVESVGGLVQAGGSLRLSSDASGRTFYSNAMGWYREAPGKERELVAGMNIGGGSTYYADSVKGRFTISRDNAKNTVYLQMYSLIPEATAVYYCAALRWGAYRHGYWGQGTQVTVSW”: the “polyreactivity (PSR sort gate)” value is recorded as “high polyreactivity”. For “QVQLVESGGGLVQAGGSLRFSCAASGNILPSNAMGWYRQAPGKERELVAVINSSGNTNYADSVKGRFTISRDNAKKTVYLQMNSLKPEDTAVYYCVIWFRYDRARKLYYWGQGTQVTVSS”, the “polyreactivity (PSR sort gate)” value is listed as “high polyreactivity”.
